Among the data in publication PMC9584350 are response values, retold here.

Residue numbers refer to the chain shown, from its start. Names and notes keep the numbering of the source.

The test has as its target Arf6 (co-precipitated with FLAG–AMPKα2 from cells), P62330. As to the kind of experiment: co-immunoprecipitation (IP anti-FLAG, immunoblot for Arf6), band quantification. To be noted: chain shown with the change; HEK 293T cells transfected with FLAG-AMPKα2 and Arf6-myc; n=4; empty (no FLAG-AMPKα2) control = 1; parent: est. 6.0; read off a plot.

Chain of Arf6 (co-precipitated with FLAG–AMPKα2 from cells), P62330 (P62330 whole entry): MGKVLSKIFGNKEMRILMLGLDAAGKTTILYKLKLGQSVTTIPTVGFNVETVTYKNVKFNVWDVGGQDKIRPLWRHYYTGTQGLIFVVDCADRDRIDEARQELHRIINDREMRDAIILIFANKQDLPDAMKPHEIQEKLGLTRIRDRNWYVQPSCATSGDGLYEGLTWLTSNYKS

B1: FLAG–AMPKα2-WT, P54646 W402A; H403A; L404A; G405A; I406A (protein)
chain: MAEKQKHDGRVKIGHYVLGDTLGVGTFGKVKIGEHQLTGHKVAVKILNRQKIRSLDVVGKIKREIQNLKLFRHPHIIKLYQVISTPTDFFMVMEYVSGGELFDYICKHGRVEEMEARRLFQQILSAVDYCHRHMVVHRDLKPENVLLDAHMNAKIADFGLSNMMSDGEFLRTSCGSPNYAAPEVISGRLYAGPEVDIWSCGVILYALLCGTLPFDDEHVPTLFKKIRGGVFYIPEYLNRSVATLLMHMLQVDPLKRATIKDIREHEWFKQDLPSYLFPEDPSYDANVIDDEAVKEVCEKFECTESEVMNSLYSGDPQDQLAVAYHLIIDNRRIMNQASEFYLASSPPSGSFMDDSAMHIPPGLKPHPERMPPLIADSPKARCPLDALNTTKPKSLAVKKAKAAAAARSQSKPYDIMAEVYRAMKQLDFEWKVVNAYHLRVRRKNPVTGNYVKMSLQLYLVDNRSYLLDFKSIDDEVVEQRSGSSTPQRSCSAAGLHRPRSSFDSTTAESHSLSGSLTGSLTGSTLSSVSPRLGSHTMDFFEMCASLITTLAR
Consider B1, for which the response is 1.4.

B2: FLAG–AMPKα2-WT, P54646 E418A; V419A; Y420A; R421A (protein)
chain: B1 chain with A402W, A403H, A404L, A405G, A406I, E418A, V419A, Y420A, R421A
B2: the response worked out at 1.3.
